The values that follow come from PMC5103296, “New structural insight of C-terminal region of Syntenin-1, enhancing the molecular dimerization and inhibitory function related on Syndecan-4 signaling” (Scientific Reports, 2016).

Like-named read-outs stand apart in the source and are kept apart here.

One data set deals with syndecan-4-YFP (UniProt P34901). The data set can be described thus: FRET or BRET; FRET after acceptor (YFP) photobleaching in REFs expressing syndecan-4-YFP and PKM-CFP. On the technique in general: Bioluminescence resonance energy transfer reports proximity on the nanometre scale.
Chain of syndecan-4-YFP (P34901 24-202): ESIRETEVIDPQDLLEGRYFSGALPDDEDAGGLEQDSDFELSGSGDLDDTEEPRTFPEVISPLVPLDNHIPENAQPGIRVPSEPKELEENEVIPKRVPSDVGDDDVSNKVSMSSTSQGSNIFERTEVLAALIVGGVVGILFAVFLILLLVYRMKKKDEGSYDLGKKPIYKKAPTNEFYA
Data set [1] deals with the molecule itself. Nature of the data set: crystal structure; syntenin-1 mixed with 4C2 at a 1:4 molar ratio; micro batch under oil; 0.2 M lithium sulfate monohydrate, 0.1 M Tris hydrochloride pH 8.5, 30% PEG 4000; 2.8 Å.
Data set [2] deals with the molecule itself. The data set can be described thus: SEC; HiLoad 16/600 Superdex 75; 20 mM sodium phosphate, 100 mM NaCl, 0.01% NaN3, 5 mM dithiothreitol, pH 7.0; mass from calibration with standards. In general terms: SEC sorts molecules by how far they enter the pores of the column.
Data set [3] deals with the molecule itself. Described as above. The source holds these as a separate data set.
For data set [4], the target named is T1, syntenin-1 PDZ2 construct containing the C-terminal tail (PDZ2C).
T1 chain: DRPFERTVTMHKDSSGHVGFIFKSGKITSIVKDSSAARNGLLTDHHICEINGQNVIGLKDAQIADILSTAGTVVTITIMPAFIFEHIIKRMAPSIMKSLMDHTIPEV
Described as above. As to conditions: both partners purified.

In the data set with syndecan-4-YFP, “PKC catalytic domain (PKM)-CFP (domain or fragment)” registered an FRET efficiency of 6.39%.

B1: syndecan-4 cytoplasmic domain peptide corresponding to the C2 region (4C2) (peptide)
peptide: APTNEFYA
notes: C2 region of the cytoplasmic domain of rat syndecan-4, residues 195-202; Seen as a dimer in the crystal of the syntenin-1/4C2 complex; also called syndecan peptide; source: synthetic peptide (Anygen Inc.)
Take B1: the binding result in data set [1] is recorded as “binds”.

B2: His-tagged syntenin-1 (His-STN) (domain or fragment)
chain: AEIKQGIREVILCKDQDGKIGLRLKSVDNGIFVQLVQANSPASLVGLRFGDQVLQINGENCAGWSSDKAHKVLKQAFGEKITMTIRDRPFERTVTMHKDSSGHVGFIFKSGKITSIVKDSSAARNGLLTDHHICEINGQNVIGLKDAQIADILSTAGTVVTITIMPAFIFEHIIKRMAPSIMKSLMDHTIPEV
notes: syntenin-1 (STN), recombinant construct with PDZ1, PDZ2 and the C-terminal region; printed M.W 21.8 kDa; The residue numbers (H210, V211) fit the rat protein (surmised); also called STN-1; source: recombinant, purified (Ni-NTA)
With B2, the “stoichiometry N” value in data set [2] and in data set [3] was 2 each time.

B3: syntenin-1 PDZ2 construct containing the C-terminal tail (PDZ2C) (domain or fragment)
chain: DRPFERTVTMHKDSSGHVGFIFKSGKITSIVKDSSAARNGLLTDHHICEINGQNVIGLKDAQIADILSTAGTVVTITIMPAFIFEHIIKRMAPSIMKSLMDHTIPEV
modifications: limits not given; same start as PDZ2 through the native C-terminus, consistent with the printed 11.7 kDa; homodimer by gel filtration / limits not given; same start as PDZ2 through the native …
As to B3, the “stoichiometry N” value in data set [4] turned out to be 2.

For orientation: stoichiometry N means a count of units in the complex or per binding partner.
